Data taken from patent US20230227538A1 (University of California, published 2023).
Values joined by “and” are separate entries in the source; they are usually repeats but may differ in a detail not shown here. Equal entries are not always repeated.

What was measured:
[1] = target: T1, SARS-CoV-2 Spike ectodomain, stabilized prefusion trimer (spike ECD, Spike^S2P) (SARS-CoV-2); assay: SPR on captured Spike^S2P
T1 construct: also called SC2 Spike ECD; Spike trimer

[2] = target: T1, SARS-CoV-2 Spike ectodomain, stabilized …; assay: SPR, slow phase of a biphasic dissociation from Spike^S2P
[3] = target: Spike protein of live SARS-CoV-2 (isolate France/IDF0372/2020) (SARS-CoV-2, UniProt P0DTC2 14-1273); assay: cell-based or functional assay
[4] = target: T1, SARS-CoV-2 Spike ectodomain, stabilized …; assay: SPR, fast phase of a biphasic dissociation from Spike^S2P
[5] = target: T1, SARS-CoV-2 Spike ectodomain, stabilized …; assay: SPR, no measurable dissociation over ten minutes
[6] = target: T1, SARS-CoV-2 Spike ectodomain, stabilized …; assay: SPR
[7] = target: T1, SARS-CoV-2 Spike ectodomain, stabilized …
[8] = target: T1, SARS-CoV-2 Spike ectodomain, stabilized …; remark: listed apart in the source
[9] = target: T1, SARS-CoV-2 Spike ectodomain, stabilized …; assay: SPR, Spike^S2P captured on a StreptactinXT chip

| Binder | fold gain in KD against Nb6 [1] | koff [2] | koff [4] | EC50 [8] | other results |
| --- | --- | --- | --- | --- | --- |
| Nb6-tri (trivalent Nb6 with two 20 amino acid linkers) (VHH) QVQLVESGGGLVQAGGSLRLSCAASGIIFGRNAMGWYRQAPGKERELVAGITRRGSITYYADSVKGRFTISRDNAKNTVYLQMNSLKPEDTAVYYCAADPASPAPGDYWGQGTQVTVSSGGGGSGGGGSGGGGSGGGGSQVQLVESGGGLVQAGGSLRLSCAASGIIFGRNAMGWYRQAPGKERELVAGITRRGSITYYADSVKGRFTISRDNAKNTVYLQMNSLKPEDTAVYYCAADPASPAPGDYWGQGTQVTVSSGGGGSGGGGSGGGGSGGGGSQVQLVESGGGLVQAGGSLRLSCAASGIIFGRNAMGWYRQAPGKERELVAGITRRGSITYYADSVKGRFTISRDNAKNTVYLQMNSLKPEDTAVYYCAADPASPAPGDYWGQGTQVTVSS | > 200000 fold | < 1e-06 s⁻¹ | 0.029 s⁻¹ | – | IC50, plaque assay with live SARS-CoV-2 on VeroE6 cells [3]: 0.16 nM |
| mNb6-tri (trivalent mNb6 with a 20 amino acid linker) (VHH) QVQLVESGGGLVQAGGSLRLSCAASGYIFGRNAMGWYRQAPGKERELVAGITRRGSITYYADSVKGRFTISRDNAKNTVYLQMNSLKPEDTAVYYCAADPASPAYGDYWGQGTQVTVSSGGGGSGGGGSGGGGSGGGGSQVQLVESGGGLVQAGGSLRLSCAASGYIFGRNAMGWYRQAPGKERELVAGITRRGSITYYADSVKGRFTISRDNAKNTVYLQMNSLKPEDTAVYYCAADPASPAYGDYWGQGTQVTVSSGGGGSGGGGSGGGGSGGGGSQVQLVESGGGLVQAGGSLRLSCAASGYIFGRNAMGWYRQAPGKERELVAGITRRGSITYYADSVKGRFTISRDNAKNTVYLQMNSLKPEDTAVYYCAADPASPAYGDYWGQGTQVTVSS | – | – | – | – | koff [5]: < 1e-06 s⁻¹; Kd [6]: < 0.001 nM; dissociation half-life t½ [6]: > 192 h; IC50, live SARS-CoV-2 infection assay [3]: 54 pM and 2.3 ng/mL |
| Nb6 (AeroNab6, NbCOV6, clone pNbCOV006A) (VHH, also called AeroNab6 MASC monomer; Parent clone (NbCOV6)) VHH: QVQLVESGGGLVQAGGSLRLSCAASGIIFGRNAMGWYRQAPGKERELVAGITRRGSITYYADSVKGRFTISRDNAKNTVYLQMNSLKPEDTAVYYCAADPASPAPGDYWGQGTQVTVSS | – | – | – | 359 nM | koff [1]: 0.056 s⁻¹; IC50 [7]: 370 nM; Kd [9]: 210 nM |
| mNb6 (matured Nb6, mNbCOV6, AeroNab6m) (VHH) VHH: QVQLVESGGGLVQAGGSLRLSCAASGYIFGRNAMGWYRQAPGKERELVAGITRRGSITYYADSVKGRFTISRDNAKNTVYLQMNSLKPEDTAVYYCAADPASPAYGDYWGQGTQVTVSS | – | – | – | 0.056 nM | – |
| Nb6-bi (bivalent Nb6 with a 15 amino acid linker) (VHH) QVQLVESGGGLVQAGGSLRLSCAASGIIFGRNAMGWYRQAPGKERELVAGITRRGSITYYADSVKGRFTISRDNAKNTVYLQMNSLKPEDTAVYYCAADPASPAPGDYWGQGTQVTVSSGGGGSGGGGSGGGGSQVQLVESGGGLVQAGGSLRLSCAASGIIFGRNAMGWYRQAPGKERELVAGITRRGSITYYADSVKGRFTISRDNAKNTVYLQMNSLKPEDTAVYYCAADPASPAPGDYWGQGTQVTVSS | 750 fold | 0.00031 s⁻¹ | 0.027 s⁻¹ | – | – |
